Experimental findings from patent US20240343789A1 (published 2024) are described below.

Where two headings read alike, the source gives them in different places.

Holding throughout (assay): ECL ELISA titration
(ELISA stands for enzyme-linked immunosorbent assay.)

Assay [1] deals with T1, IGFR-L1 protein (Endosome/lysosome-associated apoptosis and autophagy regulator 1, ELAPOR1) (UniProt Q6UXG2 42-1013).
T1 chain: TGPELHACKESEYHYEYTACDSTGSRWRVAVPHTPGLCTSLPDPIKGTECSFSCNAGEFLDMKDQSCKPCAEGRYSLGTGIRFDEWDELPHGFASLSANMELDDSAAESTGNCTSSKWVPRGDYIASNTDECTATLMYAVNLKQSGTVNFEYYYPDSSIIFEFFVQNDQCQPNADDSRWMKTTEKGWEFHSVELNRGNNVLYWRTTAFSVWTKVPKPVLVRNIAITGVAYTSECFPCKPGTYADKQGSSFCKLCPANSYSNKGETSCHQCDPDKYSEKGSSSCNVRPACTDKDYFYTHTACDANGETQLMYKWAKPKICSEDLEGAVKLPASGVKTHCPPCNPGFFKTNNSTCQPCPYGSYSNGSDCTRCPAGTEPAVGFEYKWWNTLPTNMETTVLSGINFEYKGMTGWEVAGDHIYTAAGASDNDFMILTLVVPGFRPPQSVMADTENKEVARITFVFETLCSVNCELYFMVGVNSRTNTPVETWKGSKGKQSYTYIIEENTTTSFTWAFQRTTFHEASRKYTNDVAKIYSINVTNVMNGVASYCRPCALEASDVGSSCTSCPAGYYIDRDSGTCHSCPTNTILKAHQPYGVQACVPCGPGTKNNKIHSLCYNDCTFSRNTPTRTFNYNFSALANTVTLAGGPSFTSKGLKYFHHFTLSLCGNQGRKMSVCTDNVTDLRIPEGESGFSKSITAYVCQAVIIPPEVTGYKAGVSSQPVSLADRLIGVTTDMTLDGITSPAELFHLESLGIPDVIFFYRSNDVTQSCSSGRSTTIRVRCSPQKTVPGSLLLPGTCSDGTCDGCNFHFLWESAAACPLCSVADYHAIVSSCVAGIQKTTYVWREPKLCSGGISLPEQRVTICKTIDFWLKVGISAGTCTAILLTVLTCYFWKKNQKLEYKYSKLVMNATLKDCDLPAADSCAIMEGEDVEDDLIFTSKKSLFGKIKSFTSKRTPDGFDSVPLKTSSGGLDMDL

Assay [2] concerns the target T1, IGFR-L1 protein ….
Assay [3] addresses T1, IGFR-L1 protein ….
The target of assay [4] is T1, IGFR-L1 protein ….
Assay [5] concerns the target T1, IGFR-L1 protein ….
The target of assay [6] is T1, IGFR-L1 protein ….

B1: AB-7 (antibody, V domains shown)
VH: QVKLLQSGAALVKPGDSVKMSCKASGYSFTDYSIHWVKQSHGKSLEWIGYINPYSGGTTYNEKFKRKATLTVDKSSSTAYMEFSRLTSEDSAIYYCAREGMGITLYVMDAWGQGASVTVSS
VL: DIVLTQSPALAVSLGQRATVSCKASQTVTISRYHLLHWYQQKPGQQPTLLIYRASNLASGIPARFSGSGSGTDFTLTINPVQADDLASYYCQQSWGSPWTFGGGTKLELKR
As usually defined, the Kd is the constant that tells how readily two partners part at equilibrium. Lower therefore signals tighter binding. Turning to B1, the dissociation constant Kd in assay [1] turned out to be 1.44 nM.

B2: AB-8 (antibody, V domains shown)
VH: QVQLQQSGAELAKPGSSVKISCKASGYTFTSYFISWIKQTTGQDLEYIGYINTGSGGTNYNEKFKGKATLTVDRSSSTAFMQLSSLTPDDSAVYYCARELRRVRGWFAYWGQGTLVTVSS
VL: DTQMTQSPASLFASLGETVTIQCQASEDISSGLAWYQQKPGKSPHLLIYGANSLQDGVPSRFSGSGSGTQYSLKITNMQADDEGVYFCQQGLKYPFTFGSGTKLEIKR
For the molecule B2, binding in assay [1] was characterised by a dissociation constant (Kd) of 2.74 nM. Compared with the last molecule, the Kd is about 1.9-fold higher.

B3: AB-6 (antibody, V domains shown)
VH: EVQLVESDGGLVQPGRSLKLSCAASGFSFSDYYMAWLRQAPTKGLEWVATISHDGTGTYFRDSVKGRFTISRDNVKSTLYLQLDSLRSEDTATYYCARHKDGGYKDYWGQGVMVTVSS
VL: DIKMTQSPSPLSASLGERVTISCRASDNIDNYLSWYQKKEDGSVRLLIYHTSRLQPGAPSRFSGSGSGKDYSLTISGLESEDIATYYCQQTYTPYTFGAGTKLELRR
The molecule B3 gave a Kd in assay [2] of 5.27 nM.

B4: AB-5 (antibody, V domains shown)
VH: EVQLVESGGGLVQPGRSLKLSCAAPGFTFSASDMAWVRQAPTKGLEWVASISPSGDSTYYRDSILGRFTVSRDNAKSSLYLQMDSLRSEDTATYYCARHLGLGPFDHWGQGVMVTVSS
VL: DIQMTQSPSLLSASVGDRVTLSCKAGRDINNYLAWYQQKLGEAPKLLIYNANFLQTGIPSRFSGSGSGTDYTLTISSLQPEDVATYFCQQFNTWTGTFGGGTKLELKR
Consider B4, for which the dissociation constant (Kd) in assay [2] was 4.78 nM.

B5: AB-12 (antibody, V domains shown)
VH: EVKLLESGGGLVQPGGSMRLSCAASGFTFTDFYMNWIRQPAGKAPEWLGFIRNKANGYTTEYTPSVKGRFTISRDDTQNMLYLQMNTLRAEDTATYYCARHYYDGSYYYWYFDFWGPGTMVTVSS
VL: DVVLTQTPVAQPVTLGDQVSISCRSSQSLVKSNGNTYLEWFLQKPGQSPQLLIYKVSNRFSGVPDRFIGSGSGSDFTLKISRVEPEDLGVYYCFQAAHDPRTFGGGTKLELKR
Take B5: in assay [3], the Kd came to 2.79 nM.

B6: AB-2 (antibody, V domains shown)
VH: EVQLVESDGGFVQPGRSLTLSCAASGFTFSDYYMSWVRQAPTKGLEWVATIGYDVSYTNYRDSVKGRFTISRDNAKSILSLQMDSLRSEDTATYYCARHPSYFDYWGQGVMVTVSS
VL: DIVMTQSPSSLAVSAGETVTINCKSSQSLFYSENQKNYLAWLQQKPGQSPKLLITWASTRQSGVPDRFIGSGSGTDFTLTISSVQAEDLAIYHCQQYYDTPRTFGGGTQLELKR
The molecule B6 yielded a dissociation constant (Kd) in assay [4] of 2.22 nM.

B7: AB-11 (antibody, V domains shown)
VH: EVQLVESDGGFVQPGRSLKLSCAASGFTFSDYYMSWVRQAPTKGLEWVATIGYDGTYTNYRDSVKGRFTISRDNARSILYLQMDSLRSEDTATYYCARHPSYFDHWGQGVMVTVSS
VL: DIVMTQSPSSLAVSAGETVTINCKSSQSLLYSENQKNYLAWFQQRPGQSPKLLINWASTRQSGVPDRFIGSGSGTDFTLTISSVQAEDLATYHCQQYYDTPRTFGGGSKLELKR
In assay [3], B7 showed a dissociation constant (Kd) of 2.81 nM.

B8: AB-9 (antibody, V domains shown)
VH: EVQLVESGGGLVQPTGSVKLSCAASGFIFTNYGMAWVRQAPKKGLEWVAYISYDGGSTYFRDSVRGRFTISRDNAKSTLYLHMDSLRSEDTATYYCTTPRLDTWGQGVMVTVSS
VL: DIQMTQSPSSLSASLGDRVTITCRPSQDIGNHLSWFQQKPGKSPRLMTYGATILEDGVPSRFSGSRSRSDYSLTISSLESEDTAIYYCLQYDKYPRTFGGGTKVELKR
Consider B8, for which the dissociation constant (Kd) in assay [5] stood at 2.95 nM.

B9: AB-3 (antibody, V domains shown)
VH: EVQLLESGGGLVQPGGSLSLSCAASGFTFTDFYMNWIRQPAGKAPEWLAFARNKANGYTTDYNPSVKGRFAISRDNTQNMFYLHMNTLRPEDTATYYCARGRPSDYWGQGVMVTVSS
VL: DIVMTQSPSSLAVSTGETVTMDCKSSQNLFYSGNQRNYLAWYQQKPGQSPTLLIYWASTRRSGVPDRFIGSGSGTDFTLTISSVQAEDLALYYCQQYDDPPYTFGAGTKLELKR
For the molecule B9, the Kd in assay [6] was 2.75 nM.

B10: AB-4 (antibody, V domains shown)
VH: EVQLVESGGGFVRPGKSLKLSCSASGFTFNTYGMHWIRQAPGKGLDWVSYISSSSATAYADAVKGRFTISRDNAKNTLYLQLNSLRSEDTAIYHCAREATYYGYPRYYFDYWGQGVMVTVSS
VL: DIQMTQSPSSMSVSLGDRVTFTCRASQDIGNYLSWYQQKPEKSPRLMIYTATDLEDGVPSRFSGSRSGSDYSLTINSLESEDRGIYFCLQHKQYPYTFGSGTKLELKR
For B10, the Kd in assay [6] was determined as 2.76 nM.

B11: AB-1 (antibody, V domains shown)
VH: EIQLQESGPGLVKPSQSLSLTCSVTDYTITSGFGWSWIRKFPGNKLEWMGYISYSGSTNYNPSLKSRLSLTRDTTKNQFFLQLISVTPEDTATYYCARSPLYGSNRYVVDAWGQGASVTVSS
VL: DVQMTQSPSILTASPGESVSINCKASKSISNYLAWYQQKPGKSINLLIYSGSTLQSGTPSRFSGSGSGTDFTLTIRNLDPEDFGRYYCQQHNENPYTFGPGTRLELKR
B11 returned a dissociation constant Kd in assay [4] of 2.8 nM.

B12: AB-10 (antibody, V domains shown)
VH: GVQLVESGGGLVQSGRSIKVSCEASGFTFSNFYMAWVRQAPTKGLEWVASISSGGGNTHYRDSVRGRFTISRNNAKSTLYLQMDSLNSEDTATYYCARDPGGGSPYWYLDFWGPGTMVTVSS
VL: DIVLTQSPALAVSLGQRATISCRANQNVDFYDNTYLHWYQQKPGQQPKLLIYLASNLASGIPARFSGGGSGTDFTLTIDPVEADDTATYYCQQSRNLPNTFGAGTKLELKR
B12 registered a Kd in assay [5] of 1.01 nM. That is a single-digit nanomolar value.
